Measured values published in paper PMC9605497, “Potential of Epidermal Growth Factor-like Peptide from the Sea Cucumber Stichopus horrens to Increase the Growth of Human Cells: In Silico Molecular Docking Approach” (Marine Drugs, 2022).

Target: T1, human epidermal growth factor receptor (human (endogenous in melanoma cells …, UniProt P00533 25-1210))
T1 construct: epidermal growth factor receptor, human, as present on human melanoma cells (CRL-1872); The cells were not transfected; also called hEGFR; EGFR; source: endogenous, human melanoma cells (CRL-1872, ATCC), formalin-fixed in a 96-well plate
Test: ligand binding assay on fixed cells (biotinylated ligand, NeutrAvidin-HRP, ABTS, absorbance at 405 nm); formalin-fixed human melanoma cells in a 96-well plate; biotinylated peptide at 10, 50 and 500 nM in MEM with 0.1% BSA and 200 mM HEPES, 37 °C, 1 h; washes with cold PBS and 0.3 M NaCl; triplicates
Conditions: one partner purified

increase of the relative binding percentage on a tenfold higher concentration: 4%
B1: Recombinant human EGF (ligand)
chain: MNSDSECPLSHDGYCLHDGVCMYIEALDKYACNCVVGYIGERCQYRDLKWWELR
modifications: biotin (conjugated with NHS-biotin; sites not stated)
notes: also called rhEGF; source: bought: Thermo Scientific; biotinylated with NHS-biotin
